Consider twelve molecules from patent US20180037631A1 (Bristol-Myers Squibb, published 2018).

Sequences and labels used below:
B1: E82 (designed binder)
10Fn3 domain: MGVSDVPRDLEVVAATPTSLLISWRVLVDMYQYYRITYGETGGNSPVQEFTVPGGVLTATISGLKPGVDYTITVYAVTDYKPHVDGPHTYYESPISINYRTEIDKPSQ
B2: E83 (designed binder)
10Fn3 domain: MGVSDVPRDLEVVAATPTSLLISWMFVGMSYQYYRITYGETGGNSPVQEFTVPYGVHTATISGLKPGVDYTITVYAVTDYFNPATHEYIYHVTPISINYRTEIDKPSQ
B3: E77 (designed binder)
10Fn3 domain: MGVSDVPRDLEVVAATPTSLLISWSSATRPYQYYRITYGETGGNSPVQEFTVPGGVRTATISGLKPGVDYTITVYAVTDFFNPTTHEYYYHTTPISINYRTEIDKPSQ
B4: E78 (designed binder)
10Fn3 domain: MGVSDVPRDLEVVAATPTSLLISWSVERSVYQYYRITYGETGGNSPVQEFTVPGGVRTATISGLKPGVDYTITVYAVTDYYNPSTHEYNYLTTPISINYRTEIDKPSQ
B5: E80 (designed binder)
10Fn3 domain: MGVSDVPRDLEVVAATPTSLLISWSSSHRRYQYYRITYGETGGNSPVQEFTVPGSVATATISGLKPGVDYTITVYAVTDYFNPDTHEYLYHATPISINYRTEIDKPSQ
B6: E4 (designed binder)
10Fn3 domain: MGVSDVPRDLEVVAATPTSLLISWHERDGSRQYYRITYGETGGNSPVQEFTVPGGVRTATISGLKPGVDYTITVYAVTDYFNPTTHEYIYQTTPISINYRTEIDKPSQ
B7: E81 (designed binder)
10Fn3 domain: MGVSDVPRDLEVVAATPTSLLISWDNNSNSYQYYRITYGETGGNSPVQEFTVPYDLRTATISGLKPGVDYTITVYAVTDYKPHTEGEHTYHESPISINYRTEIDKPSQ
B8: E76 (designed binder)
10Fn3 domain: MGVSDVPRDLEVVAATPTSLLISWYSQPLTYQYYRITYGETGGNSPVQEFTVPHDVNTATISGLKPGVDYTITVYAVTDFYNPETHEYTYHLTPISINYRTEIDKPSQ
B9: E85 (designed binder)
10Fn3 domain: MGVSDVPRDLEVVAATPTSLLISWTQGSTHYQYYRITYGETGGNSPVQEFTVPGMVYTATISGLKPGVDYTITVYAVTDYFDRSTHEYKYRTTPISINYRTEIDKPSQ
B10: E79 (designed binder)
10Fn3 domain: MGVSDVPRDLEVVAATPTSLLISWQDTSSYHQYYRITYGETGGNSPVQEFTVPGGVRTATISGLKPGVDYTITVYAVTDYFNPSTHEYIYRTIPISINYRTEIDKPSQ
B11: E84 (designed binder)
10Fn3 domain: MGVSDVPRDLEVVAATPTSLLISWTLHRKNYQYYRITYGETGGNSPVQEFTVPGGVVTATISGLKPGVDYTITVYAVTDYYNPATHEYDYRTTPISINYRTEIDKPSQ
B12: E99 (designed binder)
10Fn3 domain: MGVSDVPRDLEVVAATPTSLLISWDAPTSRYQYYRITYGETGGNSPVQEFTVPGGVRTATISGLKPGVDYTITVYAVTDYKPHADGPHTYHEYPISINYRTEIDKPSQ

In the first experiment the target is T1, EGFR on the surface of human tumour cells (A431, H292) (human, UniProt P00533 25-1210). Kind of experiment: cell-based or functional assay.
Take B1: the “% inhibition of EGFR phosphorylation at 100 nM binder, cell-based assay” value (from here on “% inhibition of EGFR phosphorylation”) came to 77.2%.

Regarding B2, the “% inhibition of EGFR phosphorylation” value is 90.7%.

On to B3, for which the “% inhibition of EGFR phosphorylation” value is 81.1%.

As to B4, the “% inhibition of EGFR phosphorylation” value is 76.9%.

For the molecule B5, the “% inhibition of EGFR phosphorylation” value stood at 89.6%.

Consider B6, for which the “% inhibition of EGFR phosphorylation” value turned out to be 94.3%.

As to B7, the “% inhibition of EGFR phosphorylation” value stood at 75.1%.

As to B8, the “% inhibition of EGFR phosphorylation” value turned out to be 79%.

As for B9, the “% inhibition of EGFR phosphorylation” value was 89.3%.

As to B10, the “% inhibition of EGFR phosphorylation” value stood at 99.2%.

With B11, the “% inhibition of EGFR phosphorylation” value worked out at 86.5%.

In another experiment the target is T1, EGFR on the surface of human tumour …. Put plainly: cell-based or functional assay. This is another data set of the same source.
Regarding B12, the “% inhibition of EGFR phosphorylation” value is 84.7%.
